Assay: yeast display, Sf9 membrane polyspecificity reagent, FACS + sequencing; frameworks hold sequencing errors
Method in brief: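 Sorting gates, low and high (top ~1%), were placed on anti-HA fluorescence to track expression and on streptavidin fluorescence to track reagent binding. A clone's polyreactivity label is taken from the gate it came out of. The reagent was 10% biotinylated, detergent-solubilized Sf9 membrane, applied for 1 hour at 4 °C to galactose-induced yeast display cells.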
For “QVQLVESGGGLVQAGGSLRLSCAASVSIFRVYALGWYRQEPGKERELVAAITNGGNTNYADSVKGRFTISRDNAKNTVYLQMYSLKPVDTAVYYCAATLNRYWFRLYYYLGQGTQVTVSS”, the “polyreactivity (PSR sort gate)” value was “high polyreactivity”. For “QVQLVESGGGLVQAGGSLRLSCAASVSIFYHYAMGWYRQAPGKESELVAAIDRTGGSTYYADSVKGRFTISRDNAKNTVYLQMNSLKPEDTAVYYCDADWDYADYYGFQYDYWGQGTQVTVSS”, the “polyreactivity (PSR sort gate)” value was “low polyreactivity”. In the case of “QVQLVESGGGLVQAGGSLRLSCAASVSIFYVYARGCYRQAPGKERELVAAITSSGTTNYADSVKGRFTISRDNAKNTVYLQMNSLKPEDTAVYYCAADPDSGQVPFDYWGQGTHVTVSS”, the “polyreactivity (PSR sort gate)” value is reported as “low polyreactivity”. For “QVQLVESGGGLVQAGGSLRLSCAASVSTFANNAMGWYRQAPGKERELVASITTDGSTNYADSVKGRFTISRDNAKNTVYLQMNSLKPEDTAVYYCAADYHTPSSFAPIELYDYWGQGTQVTVSS”, the “polyreactivity (PSR sort gate)” value was “low polyreactivity”. In the case of “QVQLVESGGGLVQAGGSLRLSCAASVSTFAPNAMGWYRQAPGKEMELVASIRRGGSTHYADSVKGRFTISRDNAKNTVYLQMNSLQPEDTAVYYCAAEFRDVSSNGYDYWGQGTQVTVSS”, the “polyreactivity (PSR sort gate)” value is reported as “low polyreactivity”. For “QVQLVESGGGLVQAGGSLRLSCAASVSTFDSYVMGWYRQAPGKERELVAAITSGGSTYYADSVKGRFTISRDNAKNTVYLQMNSLKPVDTAVYYCNRDERVGKWGYYWGQGTQVTVSS”, the “polyreactivity (PSR sort gate)” value was “low polyreactivity”. With “QVQLVESGGGLVQAGGSLRLSCAASVSTFISYAMGWYRQAPGKERELVAAISSSTGRTYYADSVKGRFTISRDNAKNTVYLQLNSLKPEDTAVFYCNAVHRYERDYWGQGTQVTVSS” the “polyreactivity (PSR sort gate)” value was “high polyreactivity”. For “QVQLVESGGGLVQAGGSLRLSCAASVSTFWFYAMGWYRQAPGKERELVAVISNSGSTYYADSVKGRFTISRDNAKNTVYLQMNSLKPEDTAVYYCAADVEGWTVESDVYRVGYDYWGQGTQVTVSS”, the “polyreactivity (PSR sort gate)” value was “low polyreactivity”. In the case of “QVQLVESGGGLVQAGGSLRLSCAASVSTFYGYAMGWYRQAPGKERELVAAITSTVITDYADSVKGRFTISRDNAKNTVYLQMNSLKPEDTAVYYCSADRYDSSQFYYWGQGTQVTVSS”, the “polyreactivity (PSR sort gate)” value is reported as “low polyreactivity”. With “QVQLVESGGGLVQAGGSLRLSCAASVYGMGWYRQAPGKERELVAAISNGGTTYYADSVKGRFTISRDNAKNTVYLQMNSLKPEDTAVYYCAARSWPGGFIYYYWGQGTQVTVSS” the “polyreactivity (PSR sort gate)” value was “low polyreactivity”. For “QVQLVESGGGLVQAGGSLRLSCAASVYTSNYYAMGWYRQAPGKEREFVAAITASSVSTYYADSVKGRFTISRDNAKNTVYVQMNSLKPEDTAVYYCAVVYISYTSWLWVYWLVDFDYWGQGTQVTVSS”, the “polyreactivity (PSR sort gate)” value was “low polyreactivity”. In the case of “QVQLVESGGGLVQAGGSLRLSCAASYAMGWYRQAPGKERELVATITSGGVSTYYADSVKGRFTISRDNAKNTVYLQMNSLKPEDTAVYYCAATASHSTSADYDYWGQGTQVTVSS”, the “polyreactivity (PSR sort gate)” value is reported as “low polyreactivity”. With “QVQLVESGGGLVQAGGSLRLSCAATGFIFPLYAMGWYRQAPGKQSELVAAITWRGDTTSYADSVKGRFTISRDNAKNTVYLQMNSLKPVDPAVYYCAADSYRYRPGYGPVLYDYWGQGTQVTVSS” the “polyreactivity (PSR sort gate)” value was “high polyreactivity”. For “QVQLVESGGGLVQAGGSLRLSCAATGFTFGRYAMGWYRQAPGKERELVAAITWSGGSTYYADSVKGRFTISRDNAKNTVYLQMNSLKPEDTAVYYCNRLSNNREYDYWGQGTQVTVSS”, the “polyreactivity (PSR sort gate)” value was “high polyreactivity”. In the case of “QVQLVESGGGLVQAGGSLRLSCAATGGIFDYYAMGWYRQAPGKERALVAAIRGGGSTNYADSVKGRFTISRDNAKNTVYLQMNSLKPEDTAVYYCAKDSPFTSVTVLAPIIYDSWGQGTQVTVSS”, the “polyreactivity (PSR sort gate)” value is reported as “low polyreactivity”. With “QVQLVESGGGLVQAGGSLRLSCAATGIIFGTYAMGWYLQAPGTERELVAVISWRGGTYADSVKRRFTISRDNAKNTVYLQMNSLKPEDSAVYYCNARTWARLGSYWWIVDSWGQGTQVTVSS” the “polyreactivity (PSR sort gate)” value was “high polyreactivity”. For “QVQLVESGGGLVQAGGSLRLSCAATGITFGRNTMGWYRQAPGKERDLVAAIDSGGNTYADSVKGRFTISRDNAKNTVYLQMNSLKPEDTGVFYSAGDGGELSSYGYWGQGTQVTVSS”, the “polyreactivity (PSR sort gate)” value was “low polyreactivity”. With “QVQLVESGGGLVQAGGSLRLSCAATGRIFNYYAMGWYRQAPGKERELVAAISNGGSTYYADSVKGRFTISRDNAKNTVYLQMNSLKPEDTAVYYCNAAARNGYARRVYYWGQGTQVTVSS” the “polyreactivity (PSR sort gate)” value was “high polyreactivity”. In the case of “QVQLVESGGGLVQAGGSLRLSCAATGRIFRYYAMGLYRQAPGNERELVAAIRRGGSTTYADSVKGRFTISRDNAKNTFYLQMNSLKPEDTAVYYCAATQYYRGYDYWGQGSQVTVSS”, the “polyreactivity (PSR sort gate)” value is reported as “high polyreactivity”. In the case of “QVQLVESGGGLVQAGGSLRLSCAATGRIFRYYTMGWYRQAPGKERELVAAITSSSGSTYYADSVKGRFTISRDNAKNTVYLQMNSLKPEDTAVYYCNAVRYTTQTPNVDYGYWGQGTQVTVSS”, the “polyreactivity (PSR sort gate)” value is reported as “high polyreactivity”. In the case of “QVQLVESGGGLVQAGGSLRLSCAATGRIFTTYAMGWYRQAPGKERELVAAITSGGGTYYADSVKGRFTISRDNAKNTVYLQMNSLKPEDTAVYYCNADYSADYYWYYYCGQGTQVTVSS”, the “polyreactivity (PSR sort gate)” value is reported as “low polyreactivity”. For “QVQLVESGGGLVQAGGSLRLSCAATGRIFWVYAMGWYRQAPGKERELVAAINTSVGRTHYADSVKGRFTISRDNAKNTVYLQMNSLKPEDTAVYYCAADVKRYGWEYGYWGQGTQVTVSS”, the “polyreactivity (PSR sort gate)” value was “low polyreactivity”. With “QVQLVESGGGLVQAGGSLRLSCAATGRIFYYYTMGWYRQAPGKERELVAAISWGGVNTDYADSVKGRFTISRDNAKNTVYLQMNSLKPEDTAVYYCAAGRWSVGTYDYWGQGTQVTVSS” the “polyreactivity (PSR sort gate)” value was “low polyreactivity”. For “QVQLVESGGGLVQAGGSLRLSCAATGRILYYYAMVWYRQAPGKEREVVAASTSGGSTYADSVKGRFTISRDNAKNTVYLQMNSQKPEDTAVYYCNADSTVYDTEYAYWGQGTQVTVSS”, the “polyreactivity (PSR sort gate)” value was “low polyreactivity”. For “QVQLVESGGGLVQAGGSLRLSCAATGRTFEGYAMGWYRQAPGKERELVAAISNSGGSTYYADSVKGRFTISRDNAKNTVYLQMNSLKPEDTAVYDCAALSRIRRYGYWGQGTQVNVSS”, the “polyreactivity (PSR sort gate)” value was “high polyreactivity”. For “QVQLVESGGGLVQAGGSLRLSCAATGRTFGFNDMGWYRKATGKEREFVAAINSGGNTYYADSVKGRFTISRDNAKNTVYLQMNSLKPEDTAVYECAVKRASRYYVRKEYYYWGQGTQVTVSS”, the “polyreactivity (PSR sort gate)” value was “high polyreactivity”. With “QVQLVESGGGLVQAGGSLRLSCAATGRTFGSNAMGWYRQAPGKERELVAAISLRGGRTYYADSVKGRFTISRDTAKNTVYLQMNSLKPEDTAVYYCNAVHYLYGARSRLTYDYWGQGTQVTVSS” the “polyreactivity (PSR sort gate)” value was “high polyreactivity”. In the case of “QVQLVESGGGLVQAGGSLRLSCAATGRTFTVNPMGWYIQAPGKERELVAAITGSGGSTYYADSVKGRFTISRDNGKNTVYLQMNSLKPEDTAGYYCAADVNWFRWWSGSVELDYWGQGTQVTVTS”, the “polyreactivity (PSR sort gate)” value is reported as “low polyreactivity”. With “QVQLVESGGGLVQAGGSLRLSCAATGRTFVTYAMGWYRQAPGKEREFVAAITWSTGTSTYYADSVKGRFTISRDNAKNTVFLQIHSLNQEDTAVDYCHADSQEWIWLYEGYDYWGQGTQVSVSS” the “polyreactivity (PSR sort gate)” value was “low polyreactivity”. For “QVQLVESGGGLVQAGGSLRLSCAATGRTLGGNAMGWYRLAPGKEREFVARISTRGVRTYYAYSVKGRFTISRDNAKNTVDLQLNSLNPEDTAVYYCAKQVSYGHIGSYPDRDSWGQGTQVTVSS”, the “polyreactivity (PSR sort gate)” value was “low polyreactivity”. With “QVQLVESGGGLVQAGGSLRLSCAATGRTSTYYPMGWYRQAPGKERELVAAIRSGTITNYADSVKGRFTISRDNAKNTVYLQMNSLKPEDSAVYYCAAKYRYSTYHRGSFNYWGQGTQVTVSS” the “polyreactivity (PSR sort gate)” value was “high polyreactivity”.

Source: the nanobody polyreactivity screen of Harvey et al. (2022)
